In CN117088968A:

Molecular target: 2019-nCoV N蛋白抗原 (2019-nCoV (新型冠状病毒)) (UniProt P0DTC9)
Experiment: AMC sensor, antibody captured at 10 μg/mL, N protein antigen in serial dilution in PBST

对照 (antibody)
Kd: 24.3 nM
koff: 0.00011 s⁻¹
kon: 4520 M⁻¹ s⁻¹
